Biological target: human Hsp90α (residues 1–732) (human, UniProt P07900 1-732)
Assay: ITC

B1: Tom70:Orf9b_(Helix) complex (complex)
chain 1: MNSLDRAQAAKNKGNKYFKAGKYEQAIQCYTEAISLCPTEKNVDLSTFYQNRAAAFEQLQKWKEVAQDCTKAVELNPKYVKALFRRAKAHEKLDNKKECLEDVTAVCILEGFQNQQSMLLADKVLKLLGKEKAKEKYKNREPLMPSPQFIKSYFSSFTDDIISQPMLKGEKSDEDKDKEGEALEVKENSGYLKAKQYMEEENYDKIISECSKEIDAEGKYMAEALLLRATFYLLIGNANAAKPDLDKVISLKEANVKLRANALIKRGSMYMQQQQPLLSTQDFNMAADIDPQNADVYHHRGQLKILLDQVEEAVADFDECIRLRPESALAQAQKCFALYRQAYTGNNSSQIQAAMKGFEEVIKKFPRCAEGYALYAQALTDQQQFGKADEMYDKCIDLEPDNATTYVHKGLLQLQWKQDLDRGLELISKAIEIDNKCDFAYETMGTIEVQRGNMEKAIDMFNKAINLAKSEMEMAHLYSLCDAAHAQTEVAKKYGLKPPTL
chain 2: IILRLGSPLSLNMARKTLNSLEDKAFQLTPIAVQY
binding result: binds
